IntAct's records for PubMed 17128263

B1: 1-phosphatidylinositol 4,5-bisphosphate phosphodiesterase gamma-1 (Rattus norvegicus (Rat)), P10686 (parent)
chain: MAGVGTPCANGCGPSAPSEAEVLHLCRSLEVGTVMTLFYSKKSQRPERKTFQVKLETRQITWSRGADKIEGSIDIREIKEIRPGKTSRDFDRYQEDPAFRPDQSHCFVILYGMEFRLKTLSLQATSEDEVNMWIKGLTWLMEDTLQAATPLQIERWLRKQFYSVDRNREDRISAKDLKNMLSQVNYRVPNMRFLRERLTDFEQRSGDITYGQFAQLYRSLMYSAQKTMDLPFLETNTLRTGERPELCQVSLSEFQQFLLEYQGELWAVDRLQVQEFMLSFLRDPLREIEEPYFFLDELVTFLFSKENSVWNSQLDAVCPETMNNPLSHYWISSSHNTYLTGDQFSSESSLEAYARCLRMGCRCIELDCWDGPDGMPVIYHGHTLTTKIKFSDVLHTIKEHAFVASEYPVILSIEDHCSIAQQRNMAQHFRKVLGDTLLTKPVDIAADGLPSPNQLKRKILIKHKKLAEGSAYEEVPTSVMYSENDISNSIKNGILYLEDPVNHEWYPHYFVLTSSKIYYSEETSSDQGNEDEEEPKEASGSTELHSSEKWFHGKLGAGRDGRHIAERLLTEYCIETGAPDGSFLVRESETFVGDYTLSFWRNGKVQHCRIHSRQDAGTPKFFLTDNLVFDSLYDLITHYQQVPLRCNEFEMRLSEPVPQTNAHESKEWYHASLTRAQAEHMLMRVPRDGAFLVRKRNEPNSYAISFRAEGKIKHCRVQQEGQTVMLGNSEFDSLVDLISYYEKHPLYRKMKLRYPINEEALEKIGTAEPDYGALYEGRNPGFYVEANPMPTFKCAVKALFDYKAQREDELTFTKSAIIQNVEKQDGGWWRGDYGGKKQLWFPSNYVEEMINPAILEPEREHLDENSPLGDLLRGVLDVPACQIAIRPEGKNNRLFVFSISMPSVAQWSLDVAADSQEELQDWVKKIREVAQTADARLTEGKMMERRKKIALELSELVVYCRPVPFDEEKIGTERACYRDMSSFPETKAEKYVNKAKGKKFLQYNRLQLSRIYPKGQRLDSSNYDPLPMWICGSQLVALNFQTPDKPMQMNQALFMAGGHCGYVLQPSTMRDEAFDPFDKSSLRGLEPCVICIEVLGARHLPKNGRGIVCPFVEIEVAGAEYDSTKQKTEFVVDNGLNPVWPAKPFHFQISNPEFAFLRFVVYEEDMFSDQNFLAQATFPVKGLKTGYRAVPLKNNYSEDLELASLLIKIDIFPAKENGDLSPFSGTSLRERASDASSQLFHVRAREGSFEARYQQPFEDFRISQEHLADHFDSRERRAPRRTRVNGDNRL
B2: 1-phosphatidylinositol 4,5-bisphosphate phosphodiesterase gamma-1 (Rattus norvegicus (Rat)), P10686 (parent)
chain: B1 chain
partner: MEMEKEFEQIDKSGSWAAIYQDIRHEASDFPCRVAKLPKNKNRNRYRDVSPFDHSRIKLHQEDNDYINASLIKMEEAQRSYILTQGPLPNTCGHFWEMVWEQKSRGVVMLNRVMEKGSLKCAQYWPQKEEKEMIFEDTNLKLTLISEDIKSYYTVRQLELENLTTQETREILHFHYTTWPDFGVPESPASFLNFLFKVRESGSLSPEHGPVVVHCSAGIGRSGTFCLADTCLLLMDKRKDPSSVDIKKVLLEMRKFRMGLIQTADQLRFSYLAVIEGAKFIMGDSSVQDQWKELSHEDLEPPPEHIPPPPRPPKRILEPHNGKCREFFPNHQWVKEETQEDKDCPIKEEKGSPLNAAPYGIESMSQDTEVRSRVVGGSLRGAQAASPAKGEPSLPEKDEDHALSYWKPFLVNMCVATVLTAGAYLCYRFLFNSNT

Variants of: B1
Details: with jak2_mouse Jak2, Q62120

effect of a mutation on the interaction	Variant
disrupting interaction	R586K

Variants of: B2
Details: with ptn1_human PTPN1, P18031

effect of a mutation on the interaction	Variant
disrupting interaction	R586K

Variants of: B2
Details: with ptn1_human PTPN1, P18031
Remark: another data set of the same source

effect of a mutation on the interaction	Variant
disrupting interaction	P842K
